# Values of other authors in article PMC8808565 (iScience, 2022).
# B1: human defensin 5 (protein, UniProt Q01523 20-94, looked up)
# Defensin alpha 5: ESLQERADEATTQKQSGEDNQDLAISFAGNGLSALRTSGSQARATCYCRTGRCATRESLSGVCEISGRLYRLCCR
# modifications: Defensin-5
# Tested on: ACE2
molecule,measurement,value
B1,target (in words),target ACE2
